One test deals with LIGHT (UniProt O43557 74-240, limits assumed). The test can be described thus: BLI (Octet RH96, FIG. 22).
In the next test the target is T1, FasL (UniProt P48023 134-281, limits assumed).
T1 sequence (looked up): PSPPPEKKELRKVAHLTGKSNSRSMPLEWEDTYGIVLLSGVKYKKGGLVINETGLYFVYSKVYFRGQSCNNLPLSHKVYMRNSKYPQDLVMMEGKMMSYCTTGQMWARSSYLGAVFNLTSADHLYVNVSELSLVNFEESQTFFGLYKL
The test is described as follows: BLI (Octet RH96, FIG. 22).

A further test concerns the target TRAIL (UniProt P50591 114-281). The test is described as follows: BLI (Octet RH96, FIG. 22).
Test [1] has as its target T2, soluble recombinant human TL1A trimer (human, UniProt O95150 72-251, limits assumed).
T2 construct: also called active TL1A trimer; trimeric TL1A
T2 sequence (looked up): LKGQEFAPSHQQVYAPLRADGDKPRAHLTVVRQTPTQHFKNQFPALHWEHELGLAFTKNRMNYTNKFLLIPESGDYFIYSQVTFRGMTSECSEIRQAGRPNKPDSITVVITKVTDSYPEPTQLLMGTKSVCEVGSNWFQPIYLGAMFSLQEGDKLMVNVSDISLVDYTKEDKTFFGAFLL
The test is described as follows: SPR at 37 C, soluble TL1A trimer up to 100 nM; apparent KD (KDapp). The method, then: In addition to measuring binding to scTL1A, binding to increasing concentrations of soluble recombinant human TL1A trimer (up to 100 nM) was measured at 37C via surface plasmon resonance.

In test [2] the target is T3, membrane-bound TL1A transiently expressed on CHO cells (human, UniProt O95150 1-251).
T3 construct: whole, on cells
T3 sequence (looked up): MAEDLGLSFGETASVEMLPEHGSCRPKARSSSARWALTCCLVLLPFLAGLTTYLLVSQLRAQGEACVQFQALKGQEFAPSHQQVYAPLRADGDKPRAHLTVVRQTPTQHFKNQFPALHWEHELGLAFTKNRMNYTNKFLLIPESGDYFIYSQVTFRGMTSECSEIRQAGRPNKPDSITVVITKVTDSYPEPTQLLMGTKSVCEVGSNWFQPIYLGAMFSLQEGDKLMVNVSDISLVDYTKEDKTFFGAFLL
The test is described as follows: flow cytometry on CHO cells transiently transfected with TL1A, 1 hour at 4 C. The protocol: Anti-TL1A mAbs were first screened for binding affinity to membrane-bound TL1A. CHO cells were transiently transfected to express TL1A, then were incubated with anti-TL1A mAbs for 1 hour at 4° C. and analyzed by flow cytometry. Hundreds of anti-TL1A mAbs were screened for binding, in order to determine which were the best binders to investigate further. […] The binding data is depicted in FIG. 16A.

LIGHT, sequence (O43557 74-240 limits assumed): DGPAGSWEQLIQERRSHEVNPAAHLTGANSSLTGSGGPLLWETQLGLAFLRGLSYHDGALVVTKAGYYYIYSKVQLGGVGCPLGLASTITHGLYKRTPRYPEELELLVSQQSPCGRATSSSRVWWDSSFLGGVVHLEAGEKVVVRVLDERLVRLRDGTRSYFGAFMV
TRAIL, sequence (P50591 114-281 limits assumed): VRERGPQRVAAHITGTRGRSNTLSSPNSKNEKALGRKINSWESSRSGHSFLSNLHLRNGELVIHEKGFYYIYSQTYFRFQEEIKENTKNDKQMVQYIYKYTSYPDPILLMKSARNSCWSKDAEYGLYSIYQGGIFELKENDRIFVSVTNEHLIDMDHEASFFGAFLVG

B1: XENP47942 70416_041[TL1a]_H1L1_Fab IgG1_PVA_/S267K/M428L/N434S (antibody, V domains shown)
VH: QVQLVQSGAEVKKPGASVKVSCKVSGFSVTSYNVHWVRQAPGQGLEWMGVMWSGGNTDYNSKFQGRVTMTRDTSTNTVYMELSSLRSEDTAVYYCARAGRYYHDSNYYWDFPYWGQGTLVTVSS
VL: DIQMTQSPSSVSASVGDRVTITCRASEDIYSGLAWYQQKPGKSPKLLIYGASSLQDGVPSRFSGSGSGTDYTLTISSLQPEDFATYFCQEGLKSPYTFGAGTKLEIKR
notes: also called XmAb942; Xmab942
Regarding B1, the binding result with LIGHT, with FasL and in the test with TRAIL was “no binding” each time. In addition, the Kd in test [1] fell in the range of 0.008 to 0.01 nM. The molecule also came in with a 50% effective concentration (EC50) in test [2] of 1.1 nM.

Values taken from US20250361311A1 (Xencor, published 2025).
